The target in series [1] is HSA-maleimide-KGDEVD-PABC-doxorubicin (SEQ ID NO: 28).
In series [2] the target is T1, human serum albumin (HSA) (human, UniProt P02768 25-609).
T1 construct: also called commercially available human serum albumin; human serum albumin in human plasma
Briefly: analytical HPLC; 100 µM conjugate with 700 µM purchased HSA in PBS, room temperature; covalent binding. The procedure: A human serum albumin (HSA) solution was prepared in PBS at final concentration of 700 μM. […] The samples were subjected to analytical HPLC (see FIG. 21).

Primed or numbered codes have the meaning given here. No end group written: not given here. *: point of attachment. Hexanoyl(6-maleimido) = O=C1C=CC(=O)N1CCCCCC(=O)*; PABC′ = p-aminobenzylcarbamate

B1: recombinant human caspase-3 (protein)
chain: SGISLDNSYKMDYPEMGLCIIINNKNFHKSTGMTSRSGTDVDAANLRETFRNLKYEVRNKNDLTREEIVELMRDVSKEDHSKRSSFVCVLLSHGEEGIIFGTNGPVDLKKITNFFRGDRCRSLTGKPKLFIIQACRGTELDCGIETDSGVDDDMACHKIPVEADFLYAYSTAPGYYSWRNSKDGSWFIQSLCAMLKQYADKLEFMHILTRVNRKVATEFESFSFDATFHAKKQIPCIVSMLTKELYFYH
Consider B1, for which the “HPLC monitored cleavage; liberation of free doxorubicin” value in series [1] is “The free doxorubicin was completely liberated from the HSA-maleimide-KGDEVD-PABC-doxorubicin (SEQ ID NO: 28) conjugate within 1 hour”.
Turning to K(Hexanoyl(6-maleimido))GDEVD-{PABC′-doxorubicin} (not fully specified (N-terminus), Peptide-drug prodrug conjugate) [maleimide-KGDEVD-PABC-doxorubicin (SEQ ID NO: 10)], the binding result in series [2] is “binds”.

(Values after patent publication US20160144050A1 (PHAROSGEN, published 2016).)
